Where a chain is given by its changes, count along the chain named. One block for each binder: values may come before it.
What was measured:
human SLC34A2 [1] = target: T1, human SLC34A2 (human, UniProt O95436 1-690); assay: FACS, RMG-1 cells
T1 construct: whole, on cells; also called human solute carrier 34 A2; NaPi2b
T1 sequence (looked up): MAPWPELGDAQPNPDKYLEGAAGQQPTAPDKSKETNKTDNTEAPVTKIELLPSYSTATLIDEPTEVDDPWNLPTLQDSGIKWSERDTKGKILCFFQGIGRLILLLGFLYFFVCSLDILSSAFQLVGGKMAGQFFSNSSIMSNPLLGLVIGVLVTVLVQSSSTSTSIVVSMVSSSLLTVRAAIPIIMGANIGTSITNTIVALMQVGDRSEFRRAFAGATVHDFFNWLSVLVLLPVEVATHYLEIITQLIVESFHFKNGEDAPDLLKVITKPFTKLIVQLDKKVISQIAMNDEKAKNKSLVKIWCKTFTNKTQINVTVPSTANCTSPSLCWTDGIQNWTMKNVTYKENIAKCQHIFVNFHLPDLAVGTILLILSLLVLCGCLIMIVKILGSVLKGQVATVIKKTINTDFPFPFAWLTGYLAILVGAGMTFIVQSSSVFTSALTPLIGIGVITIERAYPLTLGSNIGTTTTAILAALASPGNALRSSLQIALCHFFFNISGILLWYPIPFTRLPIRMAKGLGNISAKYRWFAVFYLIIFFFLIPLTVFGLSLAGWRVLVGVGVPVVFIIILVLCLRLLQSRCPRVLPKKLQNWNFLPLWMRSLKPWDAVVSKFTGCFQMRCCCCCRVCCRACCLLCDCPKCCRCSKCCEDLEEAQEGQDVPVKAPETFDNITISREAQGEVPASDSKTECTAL
In short: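 Flow-cytometric binding of chimeric antibodies (8-point, 4-fold dilutions from 200 nM) to RMG-1 cells, 60 min at 4° C, followed by fluorescent secondary antibody for 30 min at 4° C.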

human SLC34A2 [2] = target: T1, human SLC34A2; assay: FACS, HEK293/human SLC34A2 cells
Experimental: The PTM-derisked VH chains were first tested for their impact on target binding. Cell based binding of PTM Abs on human SLC34A2 expressing cells were assessed using flow cytometry. Briefly, the HEK293/H_SLC34A2 cells were incubated with PTM Abs (from 200 nM, 4 folds dilution, 8 points). After incubation at 4° C. for 60 minutes, the cells were washed with FACS buffer twice, then stained with fluorescent conjugated secondary antibody at 4° C. for 30 minutes. After that the cells were washed twice and analyzed by flow cytometry.

Cynomolgus SLC34A2 = target: T2, Cynomolgus SLC34A2 (Cynomolgus, UniProt A0A2K5UHY1 1-690); assay: FACS, cells expressing Cynomolgus SLC34A2
T2 construct: whole, on cells; also called Cyno SLC34A2
T2 sequence: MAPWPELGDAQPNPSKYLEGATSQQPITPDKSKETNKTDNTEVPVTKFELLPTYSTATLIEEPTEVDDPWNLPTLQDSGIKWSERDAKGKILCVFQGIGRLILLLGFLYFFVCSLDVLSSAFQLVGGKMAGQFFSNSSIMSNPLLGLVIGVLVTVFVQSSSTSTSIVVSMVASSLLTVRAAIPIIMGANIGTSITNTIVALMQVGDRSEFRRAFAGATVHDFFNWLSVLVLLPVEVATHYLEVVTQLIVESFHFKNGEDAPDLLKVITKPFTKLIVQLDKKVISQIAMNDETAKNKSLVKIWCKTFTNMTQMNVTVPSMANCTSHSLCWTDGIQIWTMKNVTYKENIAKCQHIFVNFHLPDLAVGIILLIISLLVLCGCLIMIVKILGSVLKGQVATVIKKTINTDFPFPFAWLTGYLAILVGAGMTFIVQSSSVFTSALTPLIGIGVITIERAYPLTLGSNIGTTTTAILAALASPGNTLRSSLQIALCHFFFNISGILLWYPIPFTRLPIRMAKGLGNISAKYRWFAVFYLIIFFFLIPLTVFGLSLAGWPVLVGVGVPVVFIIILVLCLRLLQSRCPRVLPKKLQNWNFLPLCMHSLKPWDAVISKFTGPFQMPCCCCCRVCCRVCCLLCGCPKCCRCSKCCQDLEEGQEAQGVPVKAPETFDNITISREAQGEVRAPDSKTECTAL

human SLC34A2 [3] = target: T1, human SLC34A2; assay: cell-based or functional assay
human SLC34A2 [4] = target: T1, human SLC34A2; assay: cell-based or functional assay; remark: listed apart in the source
human SLC34A2 [5] = target: T1, human SLC34A2; assay: cell-based or functional assay; remark: listed apart in the source
human SLC34A2 [6] = target: T1, human SLC34A2; assay: FACS, OVCAR3 cells
rat SLC34A2 = target: T3, rat SLC34A2 (rat, UniProt Q9JJ09 1-695); assay: FACS, HEK293/Rat SLC34A2 cells
T3 construct: whole, on cells
T3 sequence (looked up): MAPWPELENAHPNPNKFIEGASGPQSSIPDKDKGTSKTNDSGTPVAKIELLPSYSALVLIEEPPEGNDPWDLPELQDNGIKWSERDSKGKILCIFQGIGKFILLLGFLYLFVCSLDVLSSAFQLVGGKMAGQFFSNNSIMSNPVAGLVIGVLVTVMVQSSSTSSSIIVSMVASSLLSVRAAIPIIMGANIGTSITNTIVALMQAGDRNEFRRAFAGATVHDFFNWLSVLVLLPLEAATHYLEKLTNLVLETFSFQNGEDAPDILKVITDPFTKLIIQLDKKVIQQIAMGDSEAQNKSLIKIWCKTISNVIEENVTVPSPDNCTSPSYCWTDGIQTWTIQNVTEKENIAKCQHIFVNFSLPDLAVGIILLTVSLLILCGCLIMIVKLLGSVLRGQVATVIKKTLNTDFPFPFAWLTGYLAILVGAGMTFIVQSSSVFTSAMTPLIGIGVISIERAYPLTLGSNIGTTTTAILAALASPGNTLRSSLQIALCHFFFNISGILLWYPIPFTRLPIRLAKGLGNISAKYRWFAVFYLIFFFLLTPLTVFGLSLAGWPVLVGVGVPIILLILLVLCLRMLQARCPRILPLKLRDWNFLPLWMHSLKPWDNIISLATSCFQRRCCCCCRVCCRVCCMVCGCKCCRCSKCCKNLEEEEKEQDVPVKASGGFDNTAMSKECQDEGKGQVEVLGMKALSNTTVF

B2: 30H9B8F9.p1.z5 hIgG1 (antibody, V domains shown)
VH: QVQLVQSGAEVKKPGASVKVSCKTSGYTFTTNNMHWVRQAPGQGLEWIGAIYPGSGATAYNQKFKGRVTMTADTSTSTVYMELSSLRSEDTAVYYCARGMYGHGAMDYWGQGTLVTVSS
VL: DIQLTQSPSFLSASVGDRVTITCKASQDVGTAVAWYQQKPGKAPKLLIYWATTRHSGVPSRFSGSGSGTEFTLTISSLQPEDFATYYCQQYSSNPLTFGQGTKLEIK
notes: humanized hIgG1
ADCC-HEK293 (human SLC34A2 [5]): 1.4 nM | ADCC-OVCAR3 (human SLC34A2 [5]): 0.16 nM | Cytotoxic Effect - MDAH-2774 (human SLC34A2 [5]): 0.21 nM | Cytotoxic Effect - OVCAR3 (human SLC34A2 [5]): 0.02 nM | EC50 (human SLC34A2 [6]): 0.9 nM | EC50 (rat SLC34A2): 1.81 nM

B4: xi62G10E4G8 hIgG1 (antibody, V domains shown)
VH: QVQLQQSGAEVVKPGASVKMSCKASGYTFPSYITHWVKQTPGQGLEWIGAIYPGNGDTSYIQKFKGKATLTADKSSSTAYMQLSSLTSEDSAVYYCARGTYGTSAWFTYWGQGTLVTVSA
VL: DIVLTQSPATLSVTPGDSVSLSCRARQNIGNNLYWYQQKSHESPRLLIKYASQSISGIPSRFSGSGSGTDFTLTINSVETEDFGVYFCQQSFSWPLTFGAGTKLELK
notes: chimeric, hIgG1
EC50 (human SLC34A2 [1]): 3.65 nM | Top (MFI) (human SLC34A2 [1]): 9370 MFI | EC50 (human SLC34A2 [2]): 1.95 nM | Top (MFI) (human SLC34A2 [2]): 30300 MFI | EC50 (Cynomolgus SLC34A2): 3.33 nM | Top (MFI) (Cynomolgus SLC34A2): 4020 MFI | ADCC reporter EC50 (human SLC34A2 [3]): 4.8 nM | ADCC reporter Top (MFI) (human SLC34A2 [3]): 542000 MFI | cytotoxicity EC50 (human SLC34A2 [4]): 0.42 nM | cytotoxicity Inhibition % (human SLC34A2 [4]): 97.2%

More lines, main results first:

EC50 (human SLC34A2 [1]): 5.32 nM | Top (MFI) (human SLC34A2 [1]): 9770 MFI | EC50 (human SLC34A2 [2]): 2.13 nM | Top (MFI) (human SLC34A2 [2]): 30400 MFI | EC50 (Cynomolgus SLC34A2): 5.33 nM | Top (MFI) (Cynomolgus SLC34A2): 3510 MFI | ADCC reporter EC50 (human SLC34A2 [3]): 4.6 nM | ADCC reporter Top (MFI) (human SLC34A2 [3]): 216000 MFI
B1: xi63A11D5B4 hIgG1 (antibody, V domains shown)
VH: QVQLQQPGAELVKPGASVKMSCRTSGYTFITYNMHWVKQTPGQGREWIGAIYPGNGDTSYNQKFKGKATLTADKSSSTAYMQLNSLTSEDSAVYYCSISTIITTGAVDYWGQGTSVTVAS
VL: DIVMTQSHKFMSTSVGDRVSITCKASQDVGTAVAWYQQKAGQSPKLLIYWTSTRHTGVPDRFTGSGSGTDFTLIIRSLQSEDLADYFCQQYSRIPLTFGSGTKLEIK
notes: chimeric, hIgG1
cytotoxicity EC50 (human SLC34A2 [4]): 0.66 nM | cytotoxicity Inhibition % (human SLC34A2 [4]): 99%

ADCC-HEK293 (human SLC34A2 [5]): 1.55 nM | ADCC-OVCAR3 (human SLC34A2 [5]): 0.56 nM | EC50 (human SLC34A2 [6]): 3.8 nM | EC50 (rat SLC34A2): 4.04 nM
B3: 62G10E4G8.p3.z15 hIgG1 (antibody, V domains shown)
VH: B4 VH with Q5V, T40A, G56A, K67R, S76T, Q82E, T87R, S91T, A120S
VL: EIVLTQSPATLSVSPGERATLSCRARQNIGNNLYWYQQKPGQSPRLLIKYASQSISGIPSRFSGSGSGTDFTLTISSLQSEDFAVYFCQQSFSWPLTFGQGTKLEIK
notes: humanized hIgG1
Cytotoxic Effect - MDAH-2774 (human SLC34A2 [5]): 0.24 nM | Cytotoxic Effect - OVCAR3 (human SLC34A2 [5]): 0.025 nM
